Data as given in publication PMC11189301, “Structure of the human outer kinetochore KMN network complex” (Nature Structural & Molecular Biology, 2024).

Experiments:
MIS12C^Dsn1ΔN = molecular target: T1, MIS12C^Dsn1ΔN (Homo sapiens, UniProt Q6P1K2+Q96IY1+Q9H081+Q9H410, DEL6-113); assay: ITC, peptide titrated into MIS12C with deleted Dsn1^N (residues 6–113); type: binding; conditions: ITC Kd ratio, MIS12C^Dsn1ΔN vs MIS12C
T1 construct: all proteins, apart from Knl1, were full length; TEV-cleavable double Strep II (DS) tag (C); made in house; host or cells: High-5 insect cells (baculovirus; Nsl1-Dsn1 virus plus Mis12-Pmf1 virus)

MIS12C (WT) = molecular target: T2, MIS12C (WT) (Homo sapiens, UniProt Q6P1K2+Q96IY1+Q9H081+Q9H410); assay: Isothermal titration calorimetry (ITC), peptide titrated into wild-type MIS12C; type: binding; conditions: 20 °C, pH 7.5, wild-type MIS12C
T2 construct: TEV-cleavable double Strep II (DS) tag (C); made in house; host or cells: High-5 insect cells (baculovirus)

Dsn1 = molecular target: T3, Dsn1 (Homo sapiens, UniProt Q9H410 1-356); assay: cryo-EM structure; NDC80C, MIS12C and KNL1C mixed 1:1:1 and run on Superose 6 in 20 mM HEPES pH 8.0, 80 mM NaCl, 1 mM MgCl2, 1 mM TCEP; about 1 mg/ml on UltrAuFoil grids; 3.0 Å (MIS12C heads 3.8 Å); conditions: both partners purified
T3 construct: Dsn1, subunit of human MIS12C; Subunit within the KMN network cryo-EM sample; residues N-terminal to Arg92 are disordered; source: High-5 insect cells, expressed and purified as part of MIS12C
T3 sequence (looked up): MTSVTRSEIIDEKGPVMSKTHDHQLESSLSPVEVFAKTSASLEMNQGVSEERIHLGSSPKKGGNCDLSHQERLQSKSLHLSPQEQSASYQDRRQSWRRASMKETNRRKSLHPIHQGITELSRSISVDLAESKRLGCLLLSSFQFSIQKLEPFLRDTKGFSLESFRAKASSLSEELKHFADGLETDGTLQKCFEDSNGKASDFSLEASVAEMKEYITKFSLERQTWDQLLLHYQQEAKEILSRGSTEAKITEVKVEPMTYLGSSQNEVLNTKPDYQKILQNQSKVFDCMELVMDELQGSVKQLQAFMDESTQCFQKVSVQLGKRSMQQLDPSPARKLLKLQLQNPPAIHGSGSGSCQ

Nsl1 = molecular target: T4, Nsl1 (Homo sapiens, UniProt Q96IY1 1-281); assay: as above; conditions: both partners purified
T4 construct: Nsl1, subunit of human MIS12C; Subunit within the KMN network cryo-EM sample; source: High-5 insect cells, expressed and purified as part of MIS12C
T4 sequence (looked up): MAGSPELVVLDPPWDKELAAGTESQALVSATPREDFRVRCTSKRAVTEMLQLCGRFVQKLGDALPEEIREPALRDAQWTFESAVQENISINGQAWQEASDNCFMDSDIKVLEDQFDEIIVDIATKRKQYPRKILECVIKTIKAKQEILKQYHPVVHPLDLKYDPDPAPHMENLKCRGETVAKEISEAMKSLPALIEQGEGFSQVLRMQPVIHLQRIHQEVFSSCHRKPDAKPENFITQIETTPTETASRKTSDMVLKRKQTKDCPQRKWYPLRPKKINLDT

Spc25 = molecular target: T5, Spc25 (Homo sapiens, UniProt Q9HBM1 1-224); assay: as above; conditions: both partners purified
T5 construct: Spc25, subunit of human NDC80C; coordinates traced D80–N224; Subunit within the KMN network cryo-EM sample; source: High-5 insect cells, expressed and purified as part of NDC80C
T5 sequence (looked up): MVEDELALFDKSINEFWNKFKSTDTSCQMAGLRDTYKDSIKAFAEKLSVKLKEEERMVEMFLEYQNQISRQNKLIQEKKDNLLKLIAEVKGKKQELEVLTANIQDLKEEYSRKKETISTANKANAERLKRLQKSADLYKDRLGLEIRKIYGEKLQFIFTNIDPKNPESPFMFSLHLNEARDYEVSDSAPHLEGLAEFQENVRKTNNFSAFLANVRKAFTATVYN

[1] = molecular target: T6, MIS12 complex with Dsn1 residues 6–113 deleted (Homo sapiens, UniProt Q9H081 1-205; Q6P1K2 1-205; Q9H410 1-356; Q96IY1 1-281, 6–113 residues deleted); assay: ITC; peptide in the syringe titrated into the MIS12C variant in the cell; 20 °C; 20 mM HEPES pH 7.5, 100 mM NaCl, 1 mM TCEP; single-site binding model; duplicate or triplicate; conditions: both partners purified
T6 construct: Mis12, subunit of human MIS12C; Pmf1, subunit of human MIS12C; Nsl1, subunit of human MIS12C; also called MIS12C^Dsn1ΔN; MIS12C^ΔN-Dsn1; source: High-5 insect cells (baculovirus), purified (Strep-Tactin, Resource S, Superdex 200); copies: + + +
T6 sequence (looked up) 1: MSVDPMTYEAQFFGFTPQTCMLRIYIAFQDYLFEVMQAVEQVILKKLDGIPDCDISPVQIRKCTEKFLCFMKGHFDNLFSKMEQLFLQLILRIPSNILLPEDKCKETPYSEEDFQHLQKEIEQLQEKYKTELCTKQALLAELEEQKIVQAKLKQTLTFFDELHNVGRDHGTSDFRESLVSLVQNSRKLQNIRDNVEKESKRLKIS
T6 sequence (looked up) 2: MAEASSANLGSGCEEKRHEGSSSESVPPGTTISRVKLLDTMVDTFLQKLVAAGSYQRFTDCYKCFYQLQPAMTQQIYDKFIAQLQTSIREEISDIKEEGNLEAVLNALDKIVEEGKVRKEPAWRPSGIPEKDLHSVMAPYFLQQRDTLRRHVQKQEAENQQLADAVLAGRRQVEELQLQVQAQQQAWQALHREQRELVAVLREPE
T6 sequence (looked up) 3: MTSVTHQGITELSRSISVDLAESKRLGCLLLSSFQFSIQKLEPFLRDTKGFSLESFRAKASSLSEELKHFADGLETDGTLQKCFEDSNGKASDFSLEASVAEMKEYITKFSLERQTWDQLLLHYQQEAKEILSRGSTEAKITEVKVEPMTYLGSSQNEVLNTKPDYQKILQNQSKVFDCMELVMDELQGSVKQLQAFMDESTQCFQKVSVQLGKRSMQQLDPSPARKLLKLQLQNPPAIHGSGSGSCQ
T6 sequence (looked up) 4: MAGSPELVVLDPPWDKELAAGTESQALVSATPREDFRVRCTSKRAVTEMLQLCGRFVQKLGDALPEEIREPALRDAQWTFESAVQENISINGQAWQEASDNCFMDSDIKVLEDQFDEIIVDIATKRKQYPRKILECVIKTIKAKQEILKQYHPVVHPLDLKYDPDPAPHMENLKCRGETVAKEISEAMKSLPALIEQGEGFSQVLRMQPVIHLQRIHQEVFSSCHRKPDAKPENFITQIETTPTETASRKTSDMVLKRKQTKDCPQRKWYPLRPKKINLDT

[2] = molecular target: T7, MIS12 complex (Mis12, Pmf1, Dsn1, Nsl1), wild type, full length (Homo sapiens, UniProt Q9H081 1-205; Q6P1K2 1-205; Q9H410 1-356; Q96IY1 1-281); assay: as above; conditions: both partners purified
T7 construct: Mis12, subunit of human MIS12C; Pmf1, subunit of human MIS12C; Dsn1, subunit of human MIS12C; Nsl1, subunit of human MIS12C; The DS tag on Pmf1 is TEV cleavable; a cleavage is not described; also called MIS12C (WT); wild-type MIS12C; source: High-5 insect cells (baculovirus), purified (Strep-Tactin, Resource S, Superdex 200); copies: + + +
T7 sequence (looked up) 1: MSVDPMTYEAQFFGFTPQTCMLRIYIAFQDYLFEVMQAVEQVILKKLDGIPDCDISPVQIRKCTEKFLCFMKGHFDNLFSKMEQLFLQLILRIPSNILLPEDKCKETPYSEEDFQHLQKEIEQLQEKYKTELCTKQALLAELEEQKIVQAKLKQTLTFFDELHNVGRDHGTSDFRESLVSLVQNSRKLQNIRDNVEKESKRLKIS
T7 sequence (looked up) 2: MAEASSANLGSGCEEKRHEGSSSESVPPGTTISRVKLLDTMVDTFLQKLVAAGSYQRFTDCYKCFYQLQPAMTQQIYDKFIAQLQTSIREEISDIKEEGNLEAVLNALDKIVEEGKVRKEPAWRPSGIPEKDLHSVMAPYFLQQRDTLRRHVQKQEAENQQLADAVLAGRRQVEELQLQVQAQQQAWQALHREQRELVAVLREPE
T7 sequence (looked up) 3: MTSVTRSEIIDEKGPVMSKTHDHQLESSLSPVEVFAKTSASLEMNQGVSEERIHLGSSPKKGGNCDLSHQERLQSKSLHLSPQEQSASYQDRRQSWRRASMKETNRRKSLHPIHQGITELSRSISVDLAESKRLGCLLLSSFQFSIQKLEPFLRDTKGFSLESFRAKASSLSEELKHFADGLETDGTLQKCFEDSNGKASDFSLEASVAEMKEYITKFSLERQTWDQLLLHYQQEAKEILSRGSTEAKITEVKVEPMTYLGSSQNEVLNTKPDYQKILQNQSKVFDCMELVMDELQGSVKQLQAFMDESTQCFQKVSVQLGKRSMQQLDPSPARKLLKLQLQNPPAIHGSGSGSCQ
T7 sequence (looked up) 4: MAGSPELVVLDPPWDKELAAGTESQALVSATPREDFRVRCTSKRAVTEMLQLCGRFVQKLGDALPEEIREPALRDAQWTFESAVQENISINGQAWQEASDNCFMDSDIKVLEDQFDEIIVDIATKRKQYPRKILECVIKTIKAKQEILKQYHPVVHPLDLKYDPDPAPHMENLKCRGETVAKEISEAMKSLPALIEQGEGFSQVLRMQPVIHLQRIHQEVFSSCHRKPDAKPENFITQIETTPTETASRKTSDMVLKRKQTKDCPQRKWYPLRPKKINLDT

[3] = molecular target: T8, MIS12 complex with phosphomimetic Dsn1 S100D S109D (Homo sapiens, UniProt Q9H081 1-205; Q6P1K2 1-205; Q9H410 1-356; Q96IY1 1-281, S100D | S109D); assay: as above; conditions: both partners purified
T8 construct: Mis12, subunit of human MIS12C; Pmf1, subunit of human MIS12C; Dsn1, subunit of human MIS12C, S100D S109D; Nsl1, subunit of human MIS12C; also called MIS12C^(Dsn1-S100D S109D); MIS12C^(Dsn1 S100D/S109D); source: High-5 insect cells (baculovirus), purified (Strep-Tactin, Resource S, Superdex 200); copies: + + +
T8 sequence (looked up) 1: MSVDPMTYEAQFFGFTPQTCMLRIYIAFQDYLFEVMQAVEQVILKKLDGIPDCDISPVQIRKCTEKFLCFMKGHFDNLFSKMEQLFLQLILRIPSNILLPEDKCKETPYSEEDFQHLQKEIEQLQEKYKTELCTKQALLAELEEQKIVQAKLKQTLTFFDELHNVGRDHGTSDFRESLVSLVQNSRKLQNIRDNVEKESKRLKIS
T8 sequence (looked up) 2: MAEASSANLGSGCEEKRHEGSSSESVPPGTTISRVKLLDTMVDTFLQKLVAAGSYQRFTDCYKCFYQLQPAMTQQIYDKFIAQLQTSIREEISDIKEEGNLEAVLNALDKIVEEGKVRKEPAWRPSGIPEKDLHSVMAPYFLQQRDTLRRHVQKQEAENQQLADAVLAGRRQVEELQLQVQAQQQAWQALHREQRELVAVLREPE
T8 sequence (looked up) 3: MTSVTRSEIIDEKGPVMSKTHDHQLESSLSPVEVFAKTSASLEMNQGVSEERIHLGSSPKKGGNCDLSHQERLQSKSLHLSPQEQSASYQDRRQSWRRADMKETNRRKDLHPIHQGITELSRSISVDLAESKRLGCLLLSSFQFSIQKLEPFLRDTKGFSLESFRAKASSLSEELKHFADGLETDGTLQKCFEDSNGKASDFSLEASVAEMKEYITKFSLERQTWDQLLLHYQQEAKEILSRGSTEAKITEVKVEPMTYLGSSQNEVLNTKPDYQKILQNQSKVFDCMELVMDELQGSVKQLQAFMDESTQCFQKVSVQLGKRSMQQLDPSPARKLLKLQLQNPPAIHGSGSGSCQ
T8 sequence (looked up) 4: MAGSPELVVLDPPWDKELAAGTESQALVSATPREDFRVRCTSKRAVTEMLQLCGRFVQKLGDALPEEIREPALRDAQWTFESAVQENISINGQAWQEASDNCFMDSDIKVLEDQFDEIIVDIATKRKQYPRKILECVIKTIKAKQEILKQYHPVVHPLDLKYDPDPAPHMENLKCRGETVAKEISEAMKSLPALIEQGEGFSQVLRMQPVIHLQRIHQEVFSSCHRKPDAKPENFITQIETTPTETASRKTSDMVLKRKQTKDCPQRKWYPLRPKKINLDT

In the case of “Ac-RRQSWRRASMKETNRRKSLHPIAW-NH2 [Dsn1^92–113]”, the “enhancement of Dsn1^92–113 binding on deleting Dsn1^N, relative to MIS12C (WT)” value (MIS12C^Dsn1ΔN) is reported as 44 fold and the “affinity of Dsn1^92–113 for MIS12C, in words” value (MIS12C (WT)) is reported as “high-micromolar affinity”.

B1: Spc24 (natural protein, Homo sapiens, UniProt Q8NBT2 1-197, looked up)
chain: MAAFRDIEEVSQGLLSLLGANRAEAQQRRLLGRHEQVVERLLETQDGAEKQLREILTMEKEVAQSLLNAKEQVHQGGVELQQLEAGLQEAGEEDTRLKASLLQLTRELEELKEIEADLERQEKEVDEDTTVTIPSAVYVAQLYHQVSKIEWDYECEPGMVKGIHHGPSVAQPIHLDSTQLSRKFISDYLWSLVDTEW
notes: Spc24, subunit of human NDC80C; coordinates traced G86–W197; Subunit within the KMN network cryo-EM sample; source: High-5 insect cells, expressed and purified as part of NDC80C
B1: binds (Dsn1); binds (Nsl1); binds (Spc25).

B2: CENP-C^2–22 peptide (peptide)
peptide: Ac-AASGLDHLKNGYRRRFCRPSRA-NH2
notes: CENP-C, human, named residues 2-22; also called N-terminal region of CENP-C (residues 2–22); source: synthetic peptide (Biosynth)
Work on B2 yielded a Kd [1] of 10.2 nM, a Kd [2] of 485 nM and a Kd [3] of 20.4 nM.
